# Measurements published in PMC4585835, “A novel stearic acid-modified hirudin peptidomimetic with improved pharmacokinetic properties and anticoagulant activity” (Scientific Reports, 2015).
# Biological target: Rat thrombin (rat)
# Assay: enzyme inhibition kinetics (thrombin-catalysed hydrolysis of Chromozym TH)
substance,measurement,value
Hirulog-1 (peptide),Ki,0.0205 µM
